The record followed here is US20100120063A1, “GPCR Arrestin Assays” (DISCOVERX CORPORATION, priority 2008, published 2010).

Holding throughout (experiment): cell-based or functional assay
Test [1] addresses CHRM2-PK2 (cholinergic receptor, muscarinic 2, fused to PK2) (E. coli) (UniProt P08172).
The target in test [2] is CRTH2-PK2 (G Protein-coupled receptor 44 fused to PK2) (E. coli) (UniProt Q9Y5Y4).
Test [3] has as its target OPRM1-PK2 (opiod receptor mu-1 fused to PK2) (E. coli) (UniProt P35372).
Test [4] concerns the target CRHR2-PK2 (corticotropin releasing hormone receptor 2 fused to PK2) (E. coli) (UniProt Q13324).
In test [5] the target is HRH3 with the EGS linker and PK (UniProt Q9Y5N1).
In test [6] the target is MC3R-PK2 (melanocortin 3 receptor fused to PK2) (E. coli) (UniProt P41968).
Test [7] addresses MC3R-PK1 (melanocortin 3 receptor fused to PK1) (E. coli) (UniProt P41968).
The target of test [8] is CHRM2-PK1 (cholinergic receptor, muscarinic 2, fused to PK1) (E. coli) (UniProt P08172).
Test [9] deals with OPRM1-PK (opiod receptor mu-1 fused to PK) (E. coli) (UniProt P35372).
Test [10] has as its target CRHR2-PK1 (corticotropin releasing hormone receptor 2 fused to PK1) (E. coli) (UniProt Q13324).
In test [11] the target is CHRM3 with the EGS linker and PK (UniProt P20309).
For test [12], the target named is OPRD1-PK fusion protein.
In test [13] the target is SSTR1-PK2 (somatostatin receptor 1 fused to PK2) (E. coli) (UniProt P30872).
For test [14], the target named is SSTR4-PK without the EGS linker (UniProt P31391).
Test [15] deals with CRTH2-PK1 (G Protein-coupled receptor 44 fused to PK1) (E. coli) (UniProt Q9Y5Y4).
For test [16], the target named is SSTR4 with the EGS linker and PK (UniProt P31391).
For test [17], the target named is CCR4-PK1 (chemokine receptor 4 fused to PK1) (E. coli) (UniProt P51679).
In test [18] the target is CCR4-PK2 (chemokine receptor 4 fused to PK2) (E. coli) (UniProt P51679).
For test [19], the target named is OPRM1-PK (opiod receptor mu-1 fused to PK) (E. coli) (UniProt P35372). The arrangement: EC50, arrestin-EA recruitment to OPRM1-PK (EFC), cells headed 'OPRM1 + PRC' (M (unit not given)): unit not given beside the values.
The target of test [20] is CRTH2-PK2 (G Protein-coupled receptor 44 fused to PK2) (E. coli) (UniProt Q9Y5Y4). Also on record: EC50 of prostaglandin for arrestin-EA recruitment, EFC (M (unit not given)): unit not given beside the values.
Test [21] concerns the target OPRM1-PK (opiod receptor mu-1 fused to PK) (E. coli) (UniProt P35372). Also on record: EC50, arrestin-EA recruitment to OPRM1-PK (EFC) (M (unit not given)): unit not given beside the values.
Test [22] concerns the target CHRM2-PK2 (cholinergic receptor, muscarinic 2, fused to PK2) (E. coli) (UniProt P08172). Also on record: EC50 of oxotremorine for arrestin-EA recruitment, EFC (M (unit not given)): unit not given beside the values.
Test [23] has the same target. The source holds these as a separate data set.
The target in test [24] is SSTR1-PK2 (somatostatin receptor 1 fused to PK2) (E. coli) (UniProt P30872). The source holds these as a separate data set.
The target in test [25] is OPRD1-PK fusion protein. The arrangement: EC50, arrestin-EA recruitment to OPRD1-PK (EFC) (M (unit not given)): unit not given beside the values.
Test [26] deals with OPRD1 (opiod receptor delta 1), not fused (UniProt P41143).
For test [27], the target named is PROKR2, not fused (UniProt Q8NFJ6). The arrangement: EC50, arrestin-EA recruitment to OPRM1-PK (EFC), cells headed 'OPRM1 + PRC' (M (unit not given)): unit not given beside the values.

Read-outs that look alike come from different tables or passages of the source.

Chain of SSTR4 with the EGS linker and PK (P31391 other isoform, or with tags, fused parts or gaps): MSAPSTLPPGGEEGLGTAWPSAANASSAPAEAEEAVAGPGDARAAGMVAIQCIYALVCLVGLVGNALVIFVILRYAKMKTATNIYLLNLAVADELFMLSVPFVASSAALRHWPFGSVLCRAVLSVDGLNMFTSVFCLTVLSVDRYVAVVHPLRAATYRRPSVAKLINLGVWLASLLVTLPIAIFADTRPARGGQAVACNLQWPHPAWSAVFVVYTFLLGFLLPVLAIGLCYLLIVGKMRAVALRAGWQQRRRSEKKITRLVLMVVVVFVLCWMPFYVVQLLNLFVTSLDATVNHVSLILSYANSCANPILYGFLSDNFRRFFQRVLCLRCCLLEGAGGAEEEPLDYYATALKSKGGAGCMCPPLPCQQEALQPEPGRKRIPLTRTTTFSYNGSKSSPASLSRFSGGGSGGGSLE
Chain of HRH3 with the EGS linker and PK (Q9Y5N1 other isoform, or with tags, fused parts or gaps): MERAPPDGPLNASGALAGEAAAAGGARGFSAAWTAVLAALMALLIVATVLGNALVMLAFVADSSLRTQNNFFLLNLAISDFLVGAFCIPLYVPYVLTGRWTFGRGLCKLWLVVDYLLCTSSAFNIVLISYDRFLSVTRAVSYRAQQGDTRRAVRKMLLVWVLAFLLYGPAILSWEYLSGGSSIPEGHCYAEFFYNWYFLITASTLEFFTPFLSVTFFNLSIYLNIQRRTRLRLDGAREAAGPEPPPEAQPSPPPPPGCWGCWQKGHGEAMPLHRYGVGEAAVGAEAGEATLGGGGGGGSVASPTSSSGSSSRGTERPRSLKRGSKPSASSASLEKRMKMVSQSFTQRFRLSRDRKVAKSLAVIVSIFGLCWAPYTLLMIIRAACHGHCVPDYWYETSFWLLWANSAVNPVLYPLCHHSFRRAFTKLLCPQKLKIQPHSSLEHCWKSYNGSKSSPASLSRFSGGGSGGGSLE
Chain of PROKR2, not fused (Q8NFJ6 whole entry, the tested form may be a part): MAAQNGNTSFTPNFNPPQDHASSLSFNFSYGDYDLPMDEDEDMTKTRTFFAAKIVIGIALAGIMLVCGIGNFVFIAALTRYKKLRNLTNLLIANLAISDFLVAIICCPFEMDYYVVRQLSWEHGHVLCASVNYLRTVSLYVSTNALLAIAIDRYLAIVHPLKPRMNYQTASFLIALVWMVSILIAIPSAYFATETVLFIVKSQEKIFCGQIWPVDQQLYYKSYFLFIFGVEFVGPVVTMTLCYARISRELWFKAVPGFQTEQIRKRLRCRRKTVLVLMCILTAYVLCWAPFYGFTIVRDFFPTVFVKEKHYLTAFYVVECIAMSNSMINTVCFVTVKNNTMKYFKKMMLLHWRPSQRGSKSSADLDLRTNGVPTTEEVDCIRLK
Chain of SSTR4-PK without the EGS linker (P31391 other isoform, or with tags, fused parts or gaps): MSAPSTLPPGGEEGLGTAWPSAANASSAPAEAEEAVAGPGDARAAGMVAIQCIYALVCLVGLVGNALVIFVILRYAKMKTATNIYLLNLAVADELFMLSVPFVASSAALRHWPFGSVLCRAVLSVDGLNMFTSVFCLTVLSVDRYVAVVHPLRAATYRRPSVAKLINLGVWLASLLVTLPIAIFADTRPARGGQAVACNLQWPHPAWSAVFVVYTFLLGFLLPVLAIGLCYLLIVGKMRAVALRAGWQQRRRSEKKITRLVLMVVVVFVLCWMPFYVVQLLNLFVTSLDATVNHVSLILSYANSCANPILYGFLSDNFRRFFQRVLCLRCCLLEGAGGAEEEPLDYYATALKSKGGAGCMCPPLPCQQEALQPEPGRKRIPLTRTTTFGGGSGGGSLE

In test [1], “arrestin-EA fusion protein (beta arrestin fused at its C terminus to the EA fragment of β-galactosidase) (from UniProt P49407 1-418; P00722 48-1024)” displayed a S:B, EFC chemiluminescence of 6.1. The substance also returned a S:B, EFC chemiluminescence in [2] of 2.6. In addition, in [3], the S:B, EFC chemiluminescence turned out to be 8. Further, the S:B, EFC chemiluminescence in test [4] is 17. For the same substance, in [5], the BOTTOM of the agonist dose-response fit, EFC chemiluminescence came to 273; the EC50 of the agonist (not named) for arrestin-EA recruitment, EFC turned out to be 55.2 nM; the LOGEC50 of the agonist (not named) for arrestin-EA recruitment, EFC (log M (unit not given)) is -7.26; the TOP of the agonist dose-response fit, EFC chemiluminescence was found to be 935. The substance further returned a S:B, EFC chemiluminescence in test [6] of 3.2. The substance also had a S:B, EFC chemiluminescence in test [7] of 1. In test [8], the S:B, EFC chemiluminescence was found to be 1.6. In test [9], the BOTTOM of the OPRM1-agonist dose-response fit, EFC chemiluminescence, U2OS cells with OPRM1-PK stood at 1010; the S:B with deltorphin, EFC chemiluminescence, U2OS cells with OPRM1-PK and OPRD1 came out at 7.4; the S:B, EFC chemiluminescence turned out to be 26; the TOP of the OPRM1-agonist dose-response fit, EFC chemiluminescence, U2OS cells with OPRM1-PK stood at 10900. Moreover, the S:B, EFC chemiluminescence in [10] came to 13. Also, in test [11], the BOTTOM of the agonist dose-response fit, EFC chemiluminescence amounted to 546; the EC50 of the agonist (not named) for arrestin-EA recruitment, EFC was found to be 82.2 nM; the LOGEC50 of the agonist (not named) for arrestin-EA recruitment, EFC (log M (unit not given)) is -7.08; the TOP of the agonist dose-response fit, EFC chemiluminescence is 1550. In [12], this substance showed a BOTTOM of the OPRM1-agonist dose-response fit, EFC chemiluminescence, CHO cells with OPRD1-PK and OPRM1 of 20.3; a S:B, EFC chemiluminescence, CHO cells with OPRD1-PK and OPRM1 of 31.9; a TOP of the OPRM1-agonist dose-response fit, EFC chemiluminescence, CHO cells with OPRD1-PK and OPRM1 of 201. For the same substance, in [13], the BOTTOM of the agonist dose-response fit, EFC chemiluminescence stood at 4800; the EC50 of the agonist (not named) for arrestin-EA recruitment, EFC turned out to be 8.15 nM; the LOGEC50 of the agonist (not named) for arrestin-EA recruitment, EFC (log M (unit not given)) was -8.09; the TOP of the agonist dose-response fit, EFC chemiluminescence was found to be 10500. This substance also showed a response in the EFC arrestin assay, CHO cells in test [14] of 1.5 fold. Also, in test [15], the S:B, EFC chemiluminescence came to 1. In [16], this substance came in with a BOTTOM of the agonist dose-response fit, EFC chemiluminescence of 1380; an EC50 of the agonist (not named) for arrestin-EA recruitment, EFC of 0.732 nM; an LOGEC50 of the agonist (not named) for arrestin-EA recruitment, EFC (log M (unit not given)) of -9.14; a TOP of the agonist dose-response fit, EFC chemiluminescence of 3420. The substance also returned a S:B, EFC chemiluminescence in test [17] of 19. The substance further returned a S:B, EFC chemiluminescence in [18] of 3. In [19], the BOTTOM of the EG-VEGF dose-response fit, EFC chemiluminescence, cells headed 'OPRM1 + PRC' is 25.8 and the TOP of the EG-VEGF dose-response fit, EFC chemiluminescence, cells headed 'OPRM1 + PRC' came out at 57.3. In test [20], this substance displayed a BOTTOM of the agonist dose-response fit, EFC chemiluminescence of 29200; an LOGEC50 of prostaglandin for arrestin-EA recruitment, EFC (log M (unit not given)) of -6.76; a TOP of the agonist dose-response fit, EFC chemiluminescence of 76000. Besides, in test [21], the BOTTOM of the DADLE dose-response fit, EFC chemiluminescence, U2OS cells with OPRM1-PK was found to be 626; the S:B with DADLE, EFC chemiluminescence, U2OS cells with OPRM1-PK was 32.7; the S:B with deltorphin, EFC chemiluminescence, U2OS cells with OPRM1-PK only is 2.5; the TOP of the DADLE dose-response fit, EFC chemiluminescence, U2OS cells with OPRM1-PK was 17100. In [22], this substance returned a BOTTOM of the agonist dose-response fit, EFC chemiluminescence of 336; an EC50 of oxotremorine for arrestin-EA recruitment, EFC (M (unit not given)) of 6.29e-05; an LOGEC50 of oxotremorine for arrestin-EA recruitment, EFC (log M (unit not given)) of -5.2; a TOP of the agonist dose-response fit, EFC chemiluminescence of 2040. Also, the EC50 of oxotremorine for arrestin-EA recruitment, EFC in [23] amounted to 6290 nM. In test [24], this substance yielded a BOTTOM of the agonist dose-response fit, EFC chemiluminescence of 4790 and a Log EC50 of the agonist (not named) for arrestin-EA recruitment, EFC (log M (unit not given)) of -8.07. In test [25], this substance had a BOTTOM of the OPRM1-agonist dose-response fit, EFC chemiluminescence, CHO cells with OPRD1-PK of 520 and a TOP of the OPRM1-agonist dose-response fit, EFC chemiluminescence, CHO cells with OPRD1-PK of 2810.

deltorphin (peptide): in [26], the EC50, arrestin-EA recruitment to co-expressed OPRM1-PK (EFC, transactivation) came out at 8.38 nM and the LOGEC50, arrestin-EA recruitment to co-expressed OPRM1-PK (EFC, transactivation) (log M (unit not given)) is -8.08. Besides, in test [21], the EC50, arrestin-EA recruitment to OPRM1-PK (EFC) (M (unit not given)) came to 0.0007 and the LOGEC50, arrestin-EA recruitment to OPRM1-PK (EFC) (log M (unit not given)) was -3.12.

The substance DADLE (peptide; in M (unit assumed)) yielded an EC50, arrestin-EA recruitment to OPRM1-PK (EFC) (M (unit not given)) in test [21] of 1.11e-07.

“arrestin-EA fusion protein (beta arrestin fused at its C terminus to the EA fragment of β-galactosidase) (from UniProt P49407 1-418; P00722 48-1024) (other; in M (unit assumed))”: the EC50 of prostaglandin for arrestin-EA recruitment, EFC (M (unit not given)) in [20] turned out to be 1.74e-07.

Consider DADLE (peptide), for which, in test [21], the LOGEC50, arrestin-EA recruitment to OPRM1-PK (EFC) (log M (unit not given)) is -6.95.

Regarding “DAMAGO, [D-Ala2,N-Me-Phe4,Gly5-ol]-enkephalin (peptide)”, in [25], the EC50, arrestin-EA recruitment to OPRD1-PK (EFC) (M (unit not given)) is 3.64e-05 and the LOGEC50, arrestin-EA recruitment to OPRD1-PK (EFC) (log M (unit not given)) is -4.44.

As to “EG-VEGF (from UniProt P58294 20-105) (ligand)”, in test [27], the EC50, arrestin-EA recruitment to OPRM1-PK (EFC), cells headed 'OPRM1 + PRC' (M (unit not given)) worked out at 3.21e-08 and the LOGEC50, arrestin-EA recruitment to OPRM1-PK (EFC), cells headed 'OPRM1 + PRC' (log M (unit not given)) is -7.49.
